# T1: CEACAM5 in cancer cell line lysates (Homo sapiens, UniProt P06731)
# T1 construct: endogenous in cells; host or cells: CEACAM5-positive and -negative cancer cell lines (RIPA lysates)
# T1 sequence (P06731 35-685): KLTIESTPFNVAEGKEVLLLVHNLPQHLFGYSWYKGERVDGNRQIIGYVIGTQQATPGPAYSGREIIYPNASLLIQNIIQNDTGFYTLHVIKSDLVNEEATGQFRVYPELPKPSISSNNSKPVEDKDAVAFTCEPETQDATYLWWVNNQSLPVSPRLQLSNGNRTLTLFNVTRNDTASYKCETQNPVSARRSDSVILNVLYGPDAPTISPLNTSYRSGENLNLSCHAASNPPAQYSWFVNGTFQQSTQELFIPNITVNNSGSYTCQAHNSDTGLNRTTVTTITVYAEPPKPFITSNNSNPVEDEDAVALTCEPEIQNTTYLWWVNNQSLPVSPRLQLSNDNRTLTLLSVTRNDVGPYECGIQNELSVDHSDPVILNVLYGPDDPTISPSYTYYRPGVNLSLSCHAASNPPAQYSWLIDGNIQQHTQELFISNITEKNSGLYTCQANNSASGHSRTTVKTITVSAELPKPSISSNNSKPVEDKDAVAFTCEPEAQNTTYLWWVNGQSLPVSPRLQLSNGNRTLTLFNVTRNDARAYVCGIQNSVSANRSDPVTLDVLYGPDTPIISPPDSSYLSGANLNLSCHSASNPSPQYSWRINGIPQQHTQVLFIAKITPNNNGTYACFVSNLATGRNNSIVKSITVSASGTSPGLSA
# T2: CEACAM-5 in FFPE cancer cell lines and human tumor tissues (Homo sapiens, UniProt P06731)
# T2 construct: formaldehyde fixed paraffin embedded (FFPE) cancer cell line microarrays (CMAs) and human tumor tissues; from tissue; host or cells: FFPE cancer cell line microarrays and human tumor tissues
# T2 sequence (P06731 35-676): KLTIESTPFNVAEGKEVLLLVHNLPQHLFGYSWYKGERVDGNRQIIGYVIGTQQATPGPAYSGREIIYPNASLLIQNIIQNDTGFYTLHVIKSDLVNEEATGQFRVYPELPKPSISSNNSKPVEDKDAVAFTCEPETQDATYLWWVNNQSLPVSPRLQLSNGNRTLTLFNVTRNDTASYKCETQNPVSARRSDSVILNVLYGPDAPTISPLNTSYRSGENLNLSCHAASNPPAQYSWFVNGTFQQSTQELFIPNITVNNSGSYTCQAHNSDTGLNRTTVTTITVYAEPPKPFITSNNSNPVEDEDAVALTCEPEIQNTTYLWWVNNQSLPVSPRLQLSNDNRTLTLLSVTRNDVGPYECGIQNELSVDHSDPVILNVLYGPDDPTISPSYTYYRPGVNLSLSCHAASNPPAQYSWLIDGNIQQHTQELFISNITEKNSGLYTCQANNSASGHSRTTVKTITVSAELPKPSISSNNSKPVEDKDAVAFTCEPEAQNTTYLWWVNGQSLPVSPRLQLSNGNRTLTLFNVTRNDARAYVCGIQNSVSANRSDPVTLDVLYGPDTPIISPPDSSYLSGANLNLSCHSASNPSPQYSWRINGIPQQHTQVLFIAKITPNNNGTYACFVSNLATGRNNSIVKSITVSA
# B1: Fab of mAb1: Fab format of antibody mAb1 (antibody, V domains shown)
# VH: EVQLQESGPGLVKPSQTLSLTCTVSDGSVSRGGYYLTWIRQHPGKGLEWIGYIYYSGSTYFNPSLRSRVTMSVDTSKNQFSLKLSSVTAADTAVYYCARGIAVAPFDYWGQGTLVTVSS
# VL: EIVLTQSPATLSVSPGERATLSCRTSQSVRSNLAWYQQKPGQAPRLLIYAASTRATGIPARFSGSGSGTEFTLTISSLQSEDFAVYYCQQYTNWPFTFGPGTKVDIK
# B2: rb8G4 (antibody)
# heavy: EVQLQESGPGLVKPSQTLSLTCTVSDGSVSRGGYYLTWIRQHPGKGLEWIGYIYYSGSTYFNPSLRSRVTMSVDTSKNQFSLKLSSVTAADTAVYYCARGIAVAPFDYWGQGTLVTVSSQPKAPSVFPLAPCCGDTPSSTVTLGCLVKGYLPEPVTVTWNSGTLTNGVRTFPSVRQSSGLYSLSSVVSVTSSSQPVTCNVAHPATNTKVDKTVAPSTCSKPTCPPPELLGGPSVFIFPPKPKDTLMISRTPEVTCVVVDVSEDDPEVQFTWYINNEQVRTARPPLREQQFNSTIRVVSTLPIAHEDWLRGKEFKCKVHNKALPAPIEKTISKARGQPLEPKVYTMGPPREELSSRSVSLTCMINGFYPSDISVEWEKNGKAEDNYKTTPAVLDSDGSYFLYSKLSVPTSEWQRGDVFTCSVMHEALHNHYTQKSISRSPGK
# light: EIVLTQSPATLSVSPGERATLSCRTSQSVRSNLAWYQQKPGQAPRLLIYAASTRATGIPARFSGSGSGTEFTLTISSLQSEDFAVYYCQQYTNWPFTFGPGTKVDIKRDPVAPSVLLFPPSKEELTTGTATIVCVANKFYPSDITVTWKVDGTTQQSGIENSKTPQSPEDNTYSLSSTLSLTSAQYNSHSVYTCEVVQGSASPIVQSFNRGDC
# Key:
# [1] = biological target: cynomolgus_monkey-CEACAM5; assay: Binding affinity on Octet Red (Fab format); details: biotinylated Macaca fascicularis CEACAM5_ECD-His captured, KD=kd/ka
# Description: • To determine the binding affinity of soluble antibody analyte to captured target protein CEACAM5 (human or cynomolgus monkey Macaca fascicularis).
# BSA = BSA (Bos taurus, UniProt P02769); assay: Selectivity ELISA, unrelated protein (Fab); format: binding; details: all concentrations tested
# Description: (§1) Selectivity determination for Fab of mAb1 to human CEACAM5 and other human CEACAM family members was done in ELISA assay. Proteins were coated on 96-well assay plates: huCEACAM5-His6 (R&D Systems #4128-CM), huCEACAM6-His6 (3934-CM R&D Systems and recombinant protein obtained from Syngene), huCEACAM1-His6 (2244-CM R&D Systems), huCEACAM3-His6 (C449 Novoprotein), huCEACAM7-His6 (C926 Novoprotein), huCEACAM8-His6 (C583 Novoprotein), huPSG1-His6 (CC66 Novoprotein), each protein was coating the plate at 12 nM concentration.
# [2] = tested on: other human CEACAM family members (huCEACAM6, huCEACAM1, huCEACAM3, huCEACAM7, huCEACAM8, huPSG1); assay: Selectivity ELISA, different CEACAM proteins (Fab); format: binding; details: even when using 1000 nM Fab
# Description: as §1
# [3] = biological target: T1, CEACAM5 in cancer cell line lysates; assay: Western blot on cancer cell line lysates; format: binding; details: CEACAM5-positive and -negative cell line lysates
# Protocol: Method used: Western blots were performed according to standard protocols (Sambrook, J. & Russell, D. W., 2001. Molecular Cloning: A Laboratory Manual, Volume 1, CSHL Press). For SDS-PAGE followed by membrane wet blotting, 15 μg total protein of RIPA cell lysates quantified by BCA kit (Thermo Scientific, #23227) were loaded per lane. Criterion XT 4-12% gels (Bio-Rad, #3450125) using MOPS running buffer (Bio-Rad #1610788) were used in a Criterion electrophoresis cell (Bio-Rad, #1656001). Transfer of proteins was confirmed by Ponceau staining. Membranes were washed before and in-between staining with 0.5 μg/mL to 1 μg/mL primary (mAb1 or rb8G4) and secondary antibodies (anti-human IgG, Jackson ImmunoResearch #109-035-098 or anti-rabbit IgG, CellSignaling #7074) was conducted. Stained membranes were visualized by ECL detection reagent using a Fusion FX imaging system (Vilber).
# NCI-H441 = assay: Flow cytometry binding to cell lines; set-up: species or system human; details: 10 μg/mL primary antibody
# Protocol: (§2) Method used: 5E5 to 1E6 cells were used for flow cytometry analyses using a BD FACSCanto II (BD Biosciences) in 5 mL polystyrene tubes. Staining with 10 μg/mL primary antibodies (mAb1, rb8G4, mouse monoclonal Agilent Dako #M7072 clone #IL7) and respective fluorescently labeled secondary antibodies (donkey anti-human IgG Jackson-Dianova #709-116-149; donkey anti-mouse IgG Jackson ImmunoResearch #715-116-150, donkey anti-rabbit IgG Jackson-Dianova #711-116-152) were conducted in 50 μL 1% PBS/BSA for 20 to 30 min at 4° C. Between and after staining steps, cells were washed thrice with 1% PBS/BSA and resuspended in 500 μL 1% PBS/BSA (including 0.2 μg/mL DAPI for live cell gating) for flow cytometry analyses. For data evaluation, FlowJo software (BD Biosciences) was used.
# A549 = assay: Flow cytometry binding to cell lines; set-up: species or system human; details: 10 μg/mL primary antibody
# Protocol: as §2
# MKN-45 = assay: Flow cytometry binding to cell lines; set-up: species or system human; details: 10 μg/mL primary antibody
# Protocol: as §2
# MDA-MB-468 = assay: Flow cytometry binding to cell lines; set-up: species or system human; details: 10 μg/mL primary antibody
# Protocol: as §2
# [4] = biological target: T2, CEACAM-5 in FFPE cancer cell lines and human tumor tissues; assay: Immunohistochemistry on FFPE cell lines and human tissues
# Protocol: For the IHC staining with the anti-CEACAM-5 antibody rb8G4, sections of 4 μm from formaldehyde fixed paraffin embedded (FFPE) cancer cell line microarrays (CMAs) and human tumor tissues were mounted on charged slides (SuperFrost Ultra Plus, Thermo Fisher Scientific or TOMO, Matsunami). The staining procedure was performed using a Discovery XT (Roche Diagnostics) staining platform. Following deparaffinization, the sections were heated for epitope retrieval in Tris-EDTA buffer pH 8 (CC1, Roche Diagnostics). The sections were incubated with the primary monoclonal antibody rb8G4 diluted to 0.5 or 0.7 μg/ml in phosphate-buffered saline (PBS) or antibody diluent buffer (DCS). The clone DA1E (rabbit monoclonal IgG, NEB) served as isotype control antibody. The primary antibodies were followed by the HQ anti-rabbit IgG detection kit (Roche Diagnostics). […]
# CMAs and the TMA with human organ tissue were stained and scanned with the NanoZoomer (Hamamatsu) with a resolution of 0.46 μm/pixel. […] The scans of the CMAs were analyzed with the image analysis software HALO (Indica Labs, USA). For the determination of the amount of antigen present, positive brown stained area was calculated as percent area of the viable tissue area. Staining (arbitrary units) is calculated as […]
# Chain of cynomolgus_monkey-CEACAM5 (as listed by the source): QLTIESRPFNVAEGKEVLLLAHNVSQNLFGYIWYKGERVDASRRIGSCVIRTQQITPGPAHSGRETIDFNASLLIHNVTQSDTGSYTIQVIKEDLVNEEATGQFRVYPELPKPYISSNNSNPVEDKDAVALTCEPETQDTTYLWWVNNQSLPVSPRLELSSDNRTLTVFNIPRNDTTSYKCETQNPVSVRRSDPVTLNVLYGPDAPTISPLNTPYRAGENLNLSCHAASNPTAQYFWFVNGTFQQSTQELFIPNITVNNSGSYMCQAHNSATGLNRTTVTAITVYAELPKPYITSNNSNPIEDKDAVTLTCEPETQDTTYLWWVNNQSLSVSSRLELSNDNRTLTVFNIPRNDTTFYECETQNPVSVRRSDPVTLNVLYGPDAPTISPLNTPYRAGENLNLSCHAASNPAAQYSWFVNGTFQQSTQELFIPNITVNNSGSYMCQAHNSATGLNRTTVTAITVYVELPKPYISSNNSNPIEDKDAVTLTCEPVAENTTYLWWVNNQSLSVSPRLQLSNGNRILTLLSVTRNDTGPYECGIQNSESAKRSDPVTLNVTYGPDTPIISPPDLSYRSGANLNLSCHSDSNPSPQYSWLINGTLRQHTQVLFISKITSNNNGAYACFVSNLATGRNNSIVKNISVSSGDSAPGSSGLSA
# Chain of BSA (P02769 25-607): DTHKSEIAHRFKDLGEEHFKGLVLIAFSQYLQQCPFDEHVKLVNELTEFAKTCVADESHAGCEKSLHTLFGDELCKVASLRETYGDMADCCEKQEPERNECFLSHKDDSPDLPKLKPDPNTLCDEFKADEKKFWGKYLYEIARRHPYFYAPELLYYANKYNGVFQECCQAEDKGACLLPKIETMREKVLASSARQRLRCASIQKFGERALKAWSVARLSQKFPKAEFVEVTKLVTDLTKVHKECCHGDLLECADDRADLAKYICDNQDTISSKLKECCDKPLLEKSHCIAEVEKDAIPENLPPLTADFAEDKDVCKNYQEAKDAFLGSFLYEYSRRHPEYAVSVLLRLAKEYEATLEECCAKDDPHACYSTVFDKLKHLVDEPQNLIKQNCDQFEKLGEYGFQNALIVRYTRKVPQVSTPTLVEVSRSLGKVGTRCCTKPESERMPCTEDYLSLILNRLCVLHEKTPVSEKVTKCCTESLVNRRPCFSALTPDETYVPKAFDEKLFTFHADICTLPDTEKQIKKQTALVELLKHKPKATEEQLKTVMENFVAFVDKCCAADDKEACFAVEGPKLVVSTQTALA
Molecule,Kd [1],Binding to unrelated protein (BSA) (BSA),Binding to the other human CEACAM family members [2],CEACAM5 detection in Western blot [3],Quotient of MFI of antibody divided by MFI of secondary antibody only control (NCI-H441),Quotient of MFI of antibody divided by MFI of secondary antibody only control (A549),Quotient of MFI of antibody divided by MFI of secondary antibody only control (MKN-45),Quotient of MFI of antibody divided by MFI of secondary antibody only control (MDA-MB-468),"Pearson correlation coefficient r of IHC staining signal with CEACAM5 mRNA expression ([4]; 104 cancer cell lines, CCLE dataset)","IHC staining of human tumor tissue ([4]; colorectal, gastric, esophageal and non-small cell lung cancer)"
B1,14.1 ± 2.53 nM,did not bind,did not bind,,,,,,,
B2,,,,specific to CEACAM5-positive cell lines,3.2,1.1,36.2,1.0,0.88,stained positive

# From patent US20250179210A1, “ANTI-CEACAM5 ANTIBODIES AND CONJUGATES AND USES THEREOF” (Merck Patent GmbH, priority 2022, published 2025)
